According to the DeepSol protein solubility set:

assay: soluble on expression in E. coli; label from the status in PepcDB or PDB records

Sequence | soluble on expression in E. coli
MEKITFEQVKEAVFHEKMSNGLQVYLLPKQGFSKTYAVFTTNYGAIDNNFVPIGETEFTKVPDGIAHFLEHKMFEKEDGDVFFKFGEKGAFTNAFTSFTKTAYLFSSTSRVEENLETLIDFVQEPYFTEETVEKEKGIIGQEIRMYDDDPDFRAYFGVIENMYHNHPVKIDIAGTVESIAEINKDLLYLCYNTFYHPSNMVLFVVGNLEPEEMMNQIRANQAKKDFTEAAPIKRHFPEEPKTVAVKERKIHFPVQIAKNMVGIKEDIGSLEGQVALKQEIIGDVALEMLFGTTSDTYLELYNQGIIDDSFGYDYTLQDSFSFVLVGGDAKDPDMQTTKIIEAIQAAAKNGLNEADLALVKRKRIGQFLRSLNSPEFIANQFSQYVMKSASLFDILPLMETVTLEEVNNFVKNLDSEERTTSFQLLPEK | not soluble
MGHHHHHHSHMDLDSGDVKRRVHLFETQRRTKEEDPIIPFSDGPIISKWGAISRSSRTGYHTTDPVQATASQGSATKPISVSDYVPYVNAVDSRWSSYGNEATSSAHYVERDRFIVTDLSGHRKHSSTGDLLSLELQQAKSNSLLLQREANALAMQQKWNSLDEGRHLTLNLLSKEIELRNGEVKKLNLSASCLMYLFSAAASWLYHY | not soluble
GMENEENSAREQEADDFLHIASVKEDWGGDGRGRMNLSGRRTAIAKEYLPRQYQFFDTNTVMEKQGWRVRGMPDNIAPGSRRLLTWHDSGASTSRVVLPPKFEAPSGIFTADLEIFVIKGAIQLGEWQLNKHSYSFIPAGVRIGSWKVLGGEEAEILWMENGSVPLEYKYAQEDHPDARLSDFIPALDSKLLPWGKADTVQFVQANKKWLRKDINGGGVWLLAILPHFDNKYQMIQPYNEEGYCLTGYCDVGDYRIVKDHYWYCPSFSTLPRHITDDGGLFFVRVDRDLSKVATVLSYAPQDT | soluble
MPRSFLVKKHFNASKKPNYSELDTHTVIISPYLYESYSMPVIPQPEILSSGAYSPITVWTTAAPFHAQLPNGLSPLSGYSSSLGRVSPPPPSDTSSKDHSGSESPISDEEERLQSKLSDPHAIEAEKFQCNLCNKTYSTFSGLAKHKQLHCDAQSRKSFSCKYCDKEYVSLGALKMHIRTHTLPCVCKICGKAFSRPWLLQGHIRTHTGEKPFSCPHCNRAFADRSNLRAHLQTHSDVKKYQCKNCSKTFSRMSLLHKHEESGCCVAH | not soluble
MSLHEAADGILETHVTWKDIEEAMQLSFGTYATFGDNMKATNISDLKGFQSIIALIEPDWIDVEKGKDLPKKFAVKISTQLALAVLSKIMKLGGENGFSEEKLNELGKLIRDGHNREVATYKLLEKMNHPDIPYTKVYGLKGYSDANDLKGFMIMEFIPNVRSIPMYEAILADDLISLVRGIATFAALGETLSEEEKAFAGGPEYLESMFEEVFTDEQLERIY | not soluble
MKGGRNRWVTAQESTLALASKCEQFDPDGITLYVFSGRFKRYENVTSAKVNQIFQENDPSGTTDLAAVLKHATDDYFQRKGAGKTKPNGETILVVTDGEPDDRKAVMRVIIEASRRMDKDEELAISFIQVGSDAQATRFLKVLDDELQGAGAKFDICDTVTMEDMEDLSLSEVLLNAITDLEHHHHHH | not soluble
MPKGGASCLTPVYAGIRDDLNSFLRAYLQFESVRFFDYKVMFENRGMVGLFTGRHNSAEIIEFNECLLVHCLPYMEECVCPGTPRSLKERLFGLYSLYTFYYIQQEKHVVKVRMDPDSSRNFRRFAQFLLTEKIYDAYALCQKLLEDKAIKQVAFISIHDPSHFKRFYTDDKVSGVSIRTNLNDPLVNVKALVEQFDALGVIHKEYSRLKMKLGITSWMKLKDPIEELKKIIKTSLQAVESSSGVDEIVHTDHSAQQLASRGMQRSSIKDQAHSAALKFSRTRRHRSVKPVIVPAETFEYAPDPKKKKEAQETMPVSGRNGRKRGRPKSVPKSKVSNPARILYEKLAEDMISEHLSTDLTEQEAFTDRPQSSLEPQKNELFNWDAAPQDAQISNQTTEPSCGEDIFIEDFGEFKSQDDVMFTAEDFNDSLIPPLADSDSDLEIDA | not soluble
MSLPDKFKRVHVVVMDSVGIGEAPDAAKFGDFDVDTFGHIAKHVGGLKMPEMGKLGLSNIREIEGIKKAEKPLAYYTKMQEASNGKDTMTGHWEIMGLYIDTPFRVFPDGFPDDLINQIEEKTGRKVIGNKPASGTEIMAELGEEHVKTGALIVYTSADSVLQIAAHEDVVPLEELYEICEFCRKITLDDPYMLGRIIARPFVGEPGAFVRTPNRHDYALKPFKPTVMDALKDGGKDVIAIGKISDIFDGEGVTESIRTKSNMDGMDQFIAVLDKDFNGMSFLNLVDFDALFGHRRDPQGYADALVDFDGRLVEVMEKLTDDDLLIITADHGNDPTYTGTDHTREFVPLLVYSPRFKNGGSELELRKTFADLGATVADNFDVKMPEYGTSFLRDLKEGHHHHHH | not soluble
MQSLDPLFARLSRSKFRSRFRLGMKERQYCLEKGAPVIEQHAADFVAKRLAPALPANDGKQTPMRGHPVFIAQHATATCCRGCLAKWHNIPQGVSLSEEQQRYIVAVIYHWLVVQMNQP | soluble
MSSAATPPPMEHTSSEDSTTAPLQTPSSSSCLDVTVAVGTSVSYLKASPLVSSPTSLVVDITESSSTLLYDKIKALPCEPVVTEVDTSTLRKETLNQIDGLLGPSPEALELRQLLNSPHLASCVQALDVVVCEIRDPKNEASGSGDKEGNCVSSDPAPAYLNGGVLPLGAQRAGTSFEHFNQSAVHTSYDEEEEELYDCMSRLRLVQFQKDTQEPMGITLKVNEDGRCFVARIMHGGMIHRQATLHVGDEIREINGMSVANRSVESLQEMLRDARGQVTFKIIPSYRSAPPACEIFVRAQFDYEPSQDDLIPCPQAGIPFKTGDILQVISKDDHNWWQARFVSSFPSIGNSSNAQRSNQQQVAGLIPSPELQEWRTACLAMERSKNTCNTHCMWFNKKKKYYTTKYLQKHSALFDQLDLVTYEEVMRLSQYRRKTLVLLGAHGVGRRHIKNTLIHRHPNRFAYPIPHTTRPPRKDEVDGKHYYFVTNEQMMADIQNNEYLEYGTHEESMYGTKLETIRNIHKSGKIAILDVEPQALKVLRTAEYSPFVVFIAAPNLQGMQDPDGSLEKLLNESDVLRQAFGHLFDFIITNSDIDDTIAQLERLVEKLPAYPQWLPVTWVY | not soluble
MGSDKIHHHHHHMSCAHVLRTWAPCIMRRAEQALRNSSYLAWETAMGKLALAAKVTHVPSLYLSELDGPHKGCRQPAIDGHHEIGRRCRELGVDTIVVFDVHWLVNSEYHINCAPKFEGIYTSNELPHFIRNMPYAYPGNVELGNLIAEVASEMGVKSRAHSETTLELEYGTLVPMRYMNADQHFKAVSVAGWCVWHDLDTSVRFGLAVRKAIEERYEGTVAILASGSLSHHFANNGTAEQFMHKVWNPFLEQMDRKVVELWEAGDWKTFCEMLPLYNEKCWGEGGMHDTAMLLGALGWDRYEGKVEVVTPYFGSSGTGQINAIFPVTPLPV | not soluble
MGSDKIHHHHHHMMTQLSAPTLTKDPLTSQDRQIIATIVNQSDYSKECKPEDVVTIWINSDDIVWVKMTHGYARYHKQSFKRAVAEVKASLSAPVERNHKEEKELKQASEKIGLLGDCDWLSLSVQYHSDKVTGHAACYISHKARILTPLAEWDFTIPKWNMPAAICPDCDGHGCGNCGYRGTRAEDLCTPVDGYRLTYVGKTDIQTAHNVYLDGVFLGILFKVRNPDEIWENDPKTYYWQGSNGMKYWSLKEAVESFTQDVVTNKVPQVRQELAVA | not soluble
MGSDKIHHHHHHMHLSNSPNSHDPDAQARFWFARQQGQTLSEAEQQQLAEWLAANPLHQDAWRRVEEDWLAIDRYRHALNDELKKARRNRPGQHKAAFQLKRRAAAAALLVAVCIPVLYQGMTGTTTYWNTLKGEQQQITLAGGSTLNLDTATRITVTQNWFTHHVQLHEGEIYLETASSDWHTLRVSAEHYEIRDIGTRFSVRYIPDQFMVEVAEGTVEVKKQGQLVLLQAGEVLSIITGSNEWRLAALPAGDIAHWRKGLLVFNAHRLHDVLHEIARYHTVQFDLADSAIGEIQVSGRFKLDELDTNLQIIADTLKINIEHPAPGRYRLGALRQSTR | not soluble
MGSDKIHHHHHHMKNPNTVISSDYGPIIINLNDNAIGRQISQYGYWATDDINIINTLVNVQLDKFGQIMFYDVGANIGTHSLAIAKTHPDTVAIRAFEAQRQVFNMLCGTMAINGLSNVHCHHNAISEKIGDFIDIPIPDYNSANNFGSLELIPPKNSDNQGIIHSGKMESVKTLSIDSFNEKVDFIKMDIEGMEDKALLGAINTIEHHRPILFLEILKTDVNFVMTFLRERGYLGFQKSFDLIAIPIEYQLQVNGTNRVF | not soluble
MGSDKIHHHHHHMSNESCKDGKIWAYLKNINVYIDQNKILSDINLNLRYGENILILGPNGSGKSTFLKLLNRSIYPITTKDSSFKLFNKENINIWDLRKKIGFLFKEMEQRVNNGVTLYDVISSGFSGIFNSKYTNLLSESKKIKINNLINTWELGDIIYNEFQTLSDGQKRRALLARALVYEPNILVLDEPFCNLDLKSNIILNQNLNELIKHSVNLIYVTHNVESILPKTNRVILIKEGKILNDGSPSELINTKTLSDLFNISIKVIEQEGYWRMIPLSS | not soluble
MGSDKIHHHHHHADDDTPVVTLGTSLTDSQRNGTLKTLTAPLNGGNYQTITVTGSDLVKYLNPSGDNFTTSSGVWSSAMIQKTSSGSGINVKILDYNGKNNITTITANQYKNAALTAGITDANIYVTSAVPIDGSGALAGVYAAYAKNGNALNQKQVNAAQDEMNTLSGITQDNKNKEGYSDAQLNNAVAGAKSEMAKQGQNISDSQIRDIVNNQININHLGNTINNNQKNQIVNLLIEIRDSGALKNGSFKSQASKLSSQIQNGAKNIFNKFNTQENRSWLQQLWDNVVNFFSHIFG | not soluble
MNYIRKLYKQDYRGFESLPHRRENVIEKYSVKSQRPLLKKYLVEDFGGMCIYCGWNCKRYDAASFHIEHIKSQIDNESLIDDYSNLALSCPICNTTKNKKALPSDLDPLGEDYKNLFYRNNRGAIVTNNDIEDRKKALSQQYIKILGLSKELYKLDYVQTSLNIIKRRLRQSDKINLELINSITEILDFIDDNYTRQSNLTLLEHHHHHH | not soluble
MWNFTLISKVKISREVTMIASKFGIGQQVRHSLLGYLGVVVDIDPVYSLSEPSPDELAVNDELRAAPWYHVVMEDDNGLPVHTYLAEAQLSSELQDEHPEQPSMDELAQTIRKQLQAPRLRNLEHHHHHH | not soluble
PQASAKEYVTTTGLSPDGNQYSIGWEVPSTQEPARRSKRSTKDYAFETNQLENGMQTLIHIENSEAPTEYRFPLSLPQEAEVIPFSEGSED | not soluble
MGLTIPVILNSVNNLSDARYAAGMGVEFMGFEVEASGERYVSPDLYKAITAWLSGVQTVTELAVLTPAVLTTIQEQYQPDFIQFESVEGISQSDLADLPCIQKIIISTGQEAKIFNNLAQYIFSEANYVLLELSDWTNWTEFQQLITEINTAYPVIWSLPIEKEDAALIQEIELKGISLKGGDEQRPGWKDLDQLIDILEALEEN | not soluble
MAHHHHHHMEKQCPVCYFNLPDPESAIAPYDTELNYFMWGPGFEWQPEPEVKNILVEEENFEESEQSEESVAGLEELDEKVDRSEAKTMFNEKSSNGKVSVEDASQNARKLGLAPSSLDEKKVRDLYGDSLTYEQYLEYLAMCVHDRDNMEELIKMFSHFDNNASGFLTKNQMRNILTTWGDALTEQEANDALNAFSSEDRIDYKLFCEDILQ | not soluble
MHGLQDDPDLQALLKGSQLLKVKSSSWRRERFYKLQEDCKTIWQESRKVMRSPESQLFSIEDIQEVRMGHRTEGLEKFARDIPEDRCFSIVFKDQRNTLDLIAPSPADAQHWVQGLRKIIHHSGSMDQRQK | soluble
